Source: PMC7054835, “MyD88 Death-Domain Oligomerization Determines Myddosome Architecture: Implications for Toll-like Receptor Signaling” (Structure(London, England:1993), 2020)

Target: the molecule itself
Experiment: AUC; sedimentation velocity (30,000 rev/min) and sedimentation equilibrium (3200 and 4200 rev/min, 250 and 280 nm) of hMyD88^DD alone, 35 uM, 293 K, 20 mM Tris, 20 mM NaCl, pH 8.0, 5% glycerol

B1: human MyD88 death domain construct (N-terminal death and intermediate domains of hMyD88, 1-151) (domain or fragment, UniProt Q99836 1-151, looked up)
chain: MAAGGPGAGSAAPVSSTSSLPLAALNMRVRRRLSLFLNVRTQVAADWTALAEEMDFEYLEIRQLETQADPTGRLLDAWQGRPGASVGRLLELLTKLGRDDVLLELGPSIEEDCQKYILKQQQEEAEKPLQVAAVDSSVPRTAELAGITTLD
notes: Myeloid differentiation primary response 88 (MyD88), human, residues 1-151: death domain plus a 30-residue segment of the intermediate domain; printed monomer mass 17.5 kDa; Forms open-ended helical filaments of several hundred subunits at 35 uM and above; The model in the map holds 103 residues per subunit and ends at Q121; also called hMyD88^DD; MyD88^DD; source: E. coli BL21 DE3 Rosetta 2, …
B1: binds.
